According to US20230265151A1, “GIP/GLP1 CO-AGONIST COMPOUNDS” (priority 2020, published 2023):
Substitutions are numbered along the chain they refer to.

T1: human GIP receptor (human, UniProt P48546 22-466)
T1 construct: whole, on cells; also called hGIPR; human glucose-dependent insulinotropic polypeptide receptor
T1 sequence (looked up): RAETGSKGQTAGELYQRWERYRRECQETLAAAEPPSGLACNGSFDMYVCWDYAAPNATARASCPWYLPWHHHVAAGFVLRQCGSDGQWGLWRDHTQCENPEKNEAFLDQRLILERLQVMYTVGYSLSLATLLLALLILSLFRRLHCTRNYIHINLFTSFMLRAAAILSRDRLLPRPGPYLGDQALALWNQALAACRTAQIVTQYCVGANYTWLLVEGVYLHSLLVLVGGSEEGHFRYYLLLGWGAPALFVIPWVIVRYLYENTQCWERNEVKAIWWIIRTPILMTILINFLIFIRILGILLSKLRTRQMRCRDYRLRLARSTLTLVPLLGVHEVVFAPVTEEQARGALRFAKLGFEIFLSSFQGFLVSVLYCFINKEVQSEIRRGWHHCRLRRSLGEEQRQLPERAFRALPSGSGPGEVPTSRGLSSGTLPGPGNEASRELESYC

B1: Y-Aib-EGT-αMeF(2F)-TSDK((2-[2-(2-Amino-ethoxy)-ethoxy]-acetyl)2-(γ-Glu)-CO-(CH2)10-CH3)-Aib-I-αMeL-LD-Orn-K((2-[2-(2-Amino-ethoxy)-ethoxy]-acetyl)2-(γ-Glu)-CO-( … (peptide)
peptide: YXEGTXTSDKXIXLDXKAQXEFIXXLIEGGPSSGAPPPS
modifications: Aib2, αMeF(2F)6, K10(Z1), Aib11, αMeL13, Orn16, K17(Z1), Aib20, D-Glu24, αMeY25, C-term NH2; Z1=AEEA2-(γ-Glu)-CO-(CH2)10-CH3
B2: Y-Aib-EGT-αMeF(2F)-TSD-4Pal-SI-αMeL-LD-Orn-K((2-[2-(2-Amino-ethoxy)-ethoxy]-acetyl)2-(γ-Glu)-CO-(CH2)14-CH3)AQ-Aib-EFI-(D-Glu)-αMeY-LIEGK((2-[2-(2-Amino-ethoxy) … (peptide)
peptide: B1 peptide with K10X, X11S, G30K
modifications: Aib2, αMeF(2F)6, 4Pal10, αMeL13, Orn16, K17(Z1), Aib20, D-Glu24, αMeY25, K30(Z1), C-term NH2; Z1=AEEA2-(γ-Glu)-CO-(CH2)14-CH3
B3: Y-Aib-EGT-αMeF(2F)-TSD-4Pal-SI-αMeL-LD-Orn-IAQ-Aib-K((2-[2-(2-Amino-ethoxy)-ethoxy]-acetyl)2-(γ-Glu)-CO-(CH2)12-CO2H)FI-(D-Glu)-αMeY-LIK((2-[2-(2-Amino-ethoxy)- … (peptide)
peptide: YXEGTXTSDXSIXLDXIAQXKFIXXLIKGGPSSGAPPPS
modifications: Aib2, αMeF(2F)6, 4Pal10, αMeL13, Orn16, Aib20, K21(Z1), D-Glu24, αMeY25, K28(Z1), C-term NH2; Z1=AEEA2-(γ-Glu)-CO-(CH2)12-CO2H
B4: Y-Aib-EGT-αMeF(2F)-TSD-4Pal-SI-αMeL-LD-Orn-IAQ-Aib-EFI-(D-Glu)-αMeY-LIK((2-[2-(2-Amino-ethoxy)-ethoxy]-acetyl)2-(γ-Glu)-CO-(CH2)12-CO2H)GGK((2-[2-(2-Amino-ethox … (peptide)
peptide: B3 peptide with K21E, P31K
modifications: Aib2, αMeF(2F)6, 4Pal10, αMeL13, Orn16, Aib20, D-Glu24, αMeY25, K28(Z1), K31(Z1), C-term NH2; Z1=AEEA2-(γ-Glu)-CO-(CH2)12-CO2H
B5: Y-Aib-EGT-αMeF(2F)-TSD-4Pal-SI-αMeL-LD-Orn-K((2-[2-(2-Amino-ethoxy)-ethoxy]-acetyl)2-(γ-Glu)-CO-(CH2)14-CH3)AQ-Aib-K((2-[2-(2-Amino-ethoxy)-ethoxy]-acetyl)2-(γ- … (peptide)
peptide: B3 peptide with I17K, K28E
modifications: Aib2, αMeF(2F)6, 4Pal10, αMeL13, Orn16, K17(Z1), Aib20, K21(Z1), D-Glu24, αMeY25, C-term NH2; Z1=AEEA2-(γ-Glu)-CO-(CH2)14-CH3
B6: Y-Aib-EGT-αMeF-TSD-4Pal-SI-αMeL-LD-Orn-K((2-[2-(2-Amino-ethoxy)-ethoxy]-acetyl)2-(γ-Glu)-CO-(CH2)10-CH3)AQ-Aib-EFI-(D-Glu)-αMeY-LIEGGK((2-[2-(2-Amino-ethoxy)-et … (peptide)
peptide: B1 peptide with K10X, X11S, P31K
modifications: Aib2, αMeF6, 4Pal10, αMeL13, Orn16, Aib20, D-Glu24, αMeY25; acylated K17, K31 (groups as in name); C-terminal amide
B7: Y-Aib-EGT-αMeF(2F)-TSD-4Pal-SI-αMeL-LD-Orn-K((2-[2-(2-Amino-ethoxy)-ethoxy]-acetyl)2-CO-(CH2)12-CO2H)AQ-Aib-EFI-(D-Glu)-αMeY-LIK((2-[2-(2-Amino-ethoxy)-ethoxy]- … (peptide)
peptide: B3 peptide with I17K, K21E
modifications: Aib2, αMeF(2F)6, 4Pal10, αMeL13, Orn16, Aib20, D-Glu24, αMeY25; acylated K17, K28 (groups as in name); C-terminal amide
B8: Y-Aib-EGT-αMeF(2F)-TSD-4Pal-SI-αMeL-LD-Orn-K((2-[2-(2-Amino-ethoxy)-ethoxy]-acetyl)-(γ-Glu)-(4-(4-tert-butylphenyl)butanoyl))AQ-Aib-EFI-(D-Glu)-αMeY-LIK((2-[2-( … (peptide)
peptide: B3 peptide with I17K, K21E
modifications: Aib2, αMeF(2F)6, 4Pal10, αMeL13, Orn16, Aib20, D-Glu24, αMeY25; acylated K17, K28 (groups as in name); C-terminal amide
B9: Y-Aib-EGT-αMeF(2F)-TSD-4Pal-SI-αMeL-LD-Orn-K((2-[2-(2-Amino-ethoxy)-ethoxy]-acetyl)-(γ-Glu)-(4-(4-tert-butylphenyl)butanoyl))AQ-Aib-K((2-[2-(2-Amino-ethoxy)-eth … (peptide)
peptide: B3 peptide with I17K, K28E
modifications: Aib2, αMeF(2F)6, 4Pal10, αMeL13, Orn16, Aib20, D-Glu24, αMeY25; acylated K17, K21 (groups as in name); C-terminal amide
B10: Y-Aib-EGT-αMeF(2F)-TSD-4Pal-SI-αMeL-LD-Orn-IAQ-Aib-K((2-[2-(2-Amino-ethoxy)-ethoxy]-acetyl)2-(γ-Glu)-(4-(4-tert-butylphenyl)butanoyl))FI-(D-Glu)-αMeY-LIK((2-[2- … (peptide)
peptide: B3 peptide
modifications: Aib2, αMeF(2F)6, 4Pal10, αMeL13, Orn16, Aib20, D-Glu24, αMeY25; acylated K21, K28 (groups as in name); C-terminal amide
B11: Y-Aib-EGT-αMeF(2F)-TSD-4Pal-SI-αMeL-LD-Orn-K((2-[2-(2-Amino-ethoxy)-ethoxy]-acetyl)2-(γ-Glu)-CO-(CH2)10-CH3)AQ-Aib-EFI-(D-Glu)-αMeY-LIEGGP S SGAPPP … (peptide)
peptide: YXEGTXTSDXSIXLDXKAQXEFIXXLIEGGPSSGAPPPSK
modifications: Aib2, αMeF(2F)6, 4Pal10, αMeL13, Orn16, Aib20, D-Glu24, αMeY25; acylated K17, K40 (groups as in name); C-terminal amide
B12: Y-Aib-EGT-αMeF(2F)-TSD-4Pal-SI-αMeL-LD-Orn-IAQ-Aib-K((2-[2-(2-Amino-ethoxy)-ethoxy]-acetyl)2-(γ-Glu)-(4-(4-tert-butylphenyl)butanoyl))FI-(D-Glu)-αMeY-LIEGGPSSGA … (peptide)
peptide: B11 peptide with K17I, E21K
modifications: Aib2, αMeF(2F)6, 4Pal10, αMeL13, Orn16, Aib20, D-Glu24, αMeY25; acylated K21, K40 (groups as in name); C-terminal amide
B13: Y-Aib-EGT-αMeF(2F)-TSD-4Pal-SI-αMeL-LD-Orn-K((2-[2-(2-Amino-ethoxy)-ethoxy]-acetyl)-(γ-Glu)-(4-(4-tert-butylphenyl)butanoyl))AQ-Aib-EFI-(D-Glu)-αMeY-LIEGGPSSGAP … (peptide)
peptide: B11 peptide
modifications: Aib2, αMeF(2F)6, 4Pal10, αMeL13, Orn16, Aib20, D-Glu24, αMeY25; acylated K17, K40 (groups as in name); C-terminal amide
B14: Y-Aib-EGT-αMeF(2F)-TSD-4Pal-SI-αMeL-LD-Orn-IAQ-Aib-K((2-[2-(2-Amino-ethoxy)-ethoxy]-acetyl)2-CO-(CH2)12-CO2H)FI-(D-Glu)-αMeY-LIEGGPSSGAPPP … (peptide)
peptide: B11 peptide with K17I, E21K
modifications: Aib2, αMeF(2F)6, 4Pal10, αMeL13, Orn16, Aib20, D-Glu24, αMeY25; acylated K21, K40 (groups as in name); C-terminal amide
B15: Y-Aib-EGT-αMeF(2F)-TSD-4Pal-SI-αMeL-LD-Orn-K((2-[2-(2-Amino-ethoxy)-ethoxy]-acetyl)3-(γ-Glu)-CO-(CH2)14-CH3)AQ-Aib-EFI-(D-Glu)-αMeY-LIEGGK((2-[2-(2-Amino-ethoxy … (peptide)
peptide: B1 peptide with K10X, X11S, P31K
modifications: Aib2, αMeF(2F)6, 4Pal10, αMeL13, Orn16, K17(Z1), Aib20, D-Glu24, αMeY25, K31(Z1), C-term NH2; Z1=AEEA3-(γ-Glu)-CO-(CH2)14-CH3
B16: Y-Aib-EGT-αMeF(2F)-TSD-4Pal-SI-αMeL-LD-Orn-K((2-[2-(2-Amino-ethoxy)-ethoxy]-acetyl)2-CO-(CH2)12-CO2H)AQ-Aib-EFI-(D-Glu)-αMeY-LIEGGK((2-[2-(2-Amino-ethoxy)-ethox … (peptide)
peptide: B1 peptide with K10X, X11S, P31K
modifications: Aib2, αMeF(2F)6, 4Pal10, αMeL13, Orn16, K17(Z1), Aib20, D-Glu24, αMeY25, K31(Z1), C-term NH2; Z1=AEEA2-CO-(CH2)12-CO2H
B17: Y-Aib-EGT-αMeF(2F)-TSD-4Pal-SI-αMeL-LD-Orn-K((2-[2-(2-Amino-ethoxy)-ethoxy]-acetyl)2-(γ-Glu)-(4-(4-tert-butylphenyl)butanoyl))AQ-Aib-EFI-(D-Glu)-αMeY-LIEGGK((2- … (peptide)
peptide: B1 peptide with K10X, X11S, P31K
modifications: Aib2, αMeF(2F)6, 4Pal10, αMeL13, Orn16, K17(Z1), Aib20, D-Glu24, αMeY25, K31(Z1), C-term NH2; Z1=AEEA2-(γ-Glu)-(4-(4-tert-butylphenyl)butanoyl)

target: T2, human GLP-1 receptor (human, UniProt P43220 24-463); assay: SPA competition vs [125I]-GLP-1, hGLP-1R membranes
T2 construct: whole, on cells; also called hGLP-1R; human glucagon-like peptide-1 receptor
Method: The binding buffer contains 25 mM HEPES, pH 7.4, 2.5 mM CaCl₂, 1 mM MgCl₂, 0.1% (w/v) bacitracin, 0.003% (w/v) TWEEN®-20, and Roche Complete™ Protease Inhibitors without EDTA.
(§1) Data are analyzed using four-parameter (curve maximum, curve minimum, IC₅₀, Hill slope) nonlinear regression routines (Genedata Screener, version 12.0.4, Genedata AG, Basal, Switzerland). […] Values for Kᵢ are reported as the geometric mean, with error expressed as the standard error of the mean (SEM) and n is equal to the number of independent replicates (determined in assays performed on different days). Geometric Means are calculated as follows: […]

Binder	Ki [nM]
B1	0.289
B2	0.52
B3	3.38
B4	1.96
B5	0.246

target: human glucagon receptor (human, UniProt P47871 26-477); assay: cell-based or functional assay

Binder	cAMP EC50 (1.0% HSA) [nM]
B6	> 9950
B7	> 9950
B8	> 9950
B9	> 9950
B10	> 9950
B11	> 9950
B12	> 9950
B13	> 9950
B14	> 9950

target: T1, human GIP receptor; assay: SPA competition vs [125I]-GIP, hGIPR membranes
Method: The binding buffer contains 25 mM HEPES, pH 7.4, 2.5 mM CaCl₂, 1 mM MgCl₂, 0.1% (w/v) bacitracin, 0.003% (w/v) TWEEN®-20, and Roche Complete™ Protease Inhibitors without EDTA. […] Plates are sealed and mixed on a plate shaker (setting 6) for 1 minute and read with a PerkinElmer Trilux MicroBeta® scintillation counter after 2.5 to 12 hours of incubation/settling time at room temperature.
as §1

Binder	Ki [nM]
B15	0.0308
B16	0.0557
B1	0.0161
B2	0.0361
B3	0.0454
B4	0.0722
B5	0.0231

target: T3, human glucagon receptor (human, UniProt P47871 26-477); assay: SPA competition vs [125I]-Gcg, hGcgR membranes
T3 construct: whole, on cells; also called hGCGR; hGcgR
Method: The binding buffer contains 25 mM 4-(2-hydroxyethyl)-1-piperazineethanesulfonic acid (HEPES), pH 7.4, 2.5 mM CaCl₂, 1 mM MgCh, 0.1% (w/v) bacitracin (Research Products), 0.003% (w/v) Polyoxyethylenesorbitan monolaurate (TWEEN®-20), and Roche Complete™ Protease Inhibitors without EDTA. […] Plates are sealed and mixed on a plate shaker (setting 6) for 1 minute and read with a PerkinElmer Trilux MicroBeta® scintillation counter after 12 hours of incubation/settling time at room temperature.
Data are analyzed using four-parameter (curve maximum, curve minimum, IC₅₀, Hill slope) nonlinear regression routines (Genedata Screener, version 12.0.4, Genedata AG, Basal, Switzerland). […] Values for Kᵢ are reported as the geometric mean, with error expressed as the standard error of the mean (SEM) and n is equal to the number of independent replicates (determined in assays performed on different days).
T3 sequence (P47871 26-477): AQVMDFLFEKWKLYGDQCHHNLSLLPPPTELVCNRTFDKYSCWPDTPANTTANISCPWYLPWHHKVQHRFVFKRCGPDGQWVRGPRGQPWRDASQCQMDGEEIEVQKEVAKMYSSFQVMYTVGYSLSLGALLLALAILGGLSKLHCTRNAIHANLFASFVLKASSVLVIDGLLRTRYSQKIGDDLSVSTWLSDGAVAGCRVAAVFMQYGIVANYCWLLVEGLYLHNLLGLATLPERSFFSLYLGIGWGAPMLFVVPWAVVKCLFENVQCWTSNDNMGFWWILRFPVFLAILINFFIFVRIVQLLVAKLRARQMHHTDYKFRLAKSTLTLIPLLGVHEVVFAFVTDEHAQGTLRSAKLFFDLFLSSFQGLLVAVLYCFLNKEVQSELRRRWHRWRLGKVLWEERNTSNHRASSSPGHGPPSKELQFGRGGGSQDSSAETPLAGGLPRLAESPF

Binder	Ki [nM]
B15	0.62
B16	209
B17	637
B1	132
B2	0.646
B3	53.9
B4	139
B5	0.293
